Consider 19 molecules from publication PMC314469, “Protein Interaction Networks by Proteome Peptide Scanning” (PLoS Biology, 2004).

Common to all, as to assay: SPOT array
The target of assay [1] is T1, Boi1 SH3 (BOI1_YEAST), P38041.
T1 chain: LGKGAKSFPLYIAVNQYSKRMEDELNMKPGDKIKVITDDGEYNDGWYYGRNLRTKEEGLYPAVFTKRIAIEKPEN

Assay [2] has as its target T2, Boi2 SH3 (BOI2_YEAST), P39969.
T2 chain: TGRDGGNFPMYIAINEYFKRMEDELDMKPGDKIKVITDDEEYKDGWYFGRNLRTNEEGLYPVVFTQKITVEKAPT

The target in assay [3] is T3, Rvs167 SH3 (RV167_YEAST), P39743.
T3 chain: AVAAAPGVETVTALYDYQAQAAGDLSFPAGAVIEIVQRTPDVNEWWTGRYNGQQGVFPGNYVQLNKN

Assay [4] has as its target T4, Yfr024 SH3 (LSB3_YEAST), P43603.
T4 chain: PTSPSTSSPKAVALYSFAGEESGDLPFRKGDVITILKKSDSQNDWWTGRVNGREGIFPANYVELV

The target of assay [5] is T5, Yhr016c SH3 (YSC84_YEAST), P32793.
T5 chain: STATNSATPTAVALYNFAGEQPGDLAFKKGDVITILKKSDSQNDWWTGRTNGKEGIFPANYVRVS

B1: YLR460C 130-143 (peptide)
chain: DVLPAGPVRSLEGV
Take B1: the normalised SPOT signal, Boehringer light units (BLU); mean over the file's lines of this peptide came to 28.2 in assay [1]; 44 in assay [2]; 32.7 in assay [3]; 4 in assay [4]; 0 in assay [5].

B2: YOR039W 203-216 (peptide)
chain: DMVPKHPTKRYVPK
With B2, the normalised SPOT signal, Boehringer light units (BLU); mean over the file's lines of this peptide in assay [1] came to 160; in assay [2], 114; in assay [3] it was 94.1; in assay [4], 1770; in assay [5], 460.

B3: YCR065W 382-395 (peptide)
chain: DPLPYSPLKLYDQK
Consider B3, for which the normalised SPOT signal, Boehringer light units (BLU); mean over the file's lines of this peptide in assay [1] amounted to 58.9; in assay [2], 134; in assay [3] it was 62.6; in assay [4] it was 117; in assay [5], 216.

B4: YMR221C 258-271 (peptide)
chain: DSIPSRPQRRKSVL
For the molecule B4, the normalised SPOT signal, Boehringer light units (BLU); mean over the file's lines of this peptide in assay [1] is 1520; in assay [2], 334; in assay [3], 651; in assay [4], 27600; in assay [5] it was 4310.

B5: YBL067C 301-314 (peptide)
chain: DRPPDVPRKIIVGR
Turning to B5, the normalised SPOT signal, Boehringer light units (BLU); mean over the file's lines of this peptide in assay [1] amounted to 96.5; in assay [2], 62.3; in assay [3], 92.5; in assay [4] it was 2970; in assay [5], 358.

B6: YPR023C 316-329 (peptide)
chain: DQKPLVPIRIYGAI
For B6, the normalised SPOT signal, Boehringer light units (BLU); mean over the file's lines of this peptide stood at 181 in assay [1]; 88.8 in assay [2]; 114 in assay [3]; 5150 in assay [4]; 1280 in assay [5].

B7: YBR132C 490-503 (peptide)
chain: DSLPKLPFRSWGQP
In the case of B7, the normalised SPOT signal, Boehringer light units (BLU); mean over the file's lines of this peptide in assay [1] came to 179; in assay [2], 25.7; in assay [3], 16100; in assay [4] it was 39100; in assay [5] it was 60200.

B8: YCR102C 122-135 (peptide)
chain: DVLPAGPVRSLEGA
Consider B8, for which the normalised SPOT signal, Boehringer light units (BLU); mean over the file's lines of this peptide in assay [1] worked out at 24.6; in assay [2], 45.9; in assay [3], 0; in assay [4], 137; in assay [5], 221.

B9: YKL185W 464-477 (peptide)
chain: DSPPQSPRRSSNSS
As to B9, the normalised SPOT signal, Boehringer light units (BLU); mean over the file's lines of this peptide in assay [1] was 309; in assay [2], 15.6; in assay [3], 41.3; in assay [4] it was 15900; in assay [5] it was 3410.

B10: YER081W 311-324 (peptide)
chain: DVYPHEPAKNGEGS
On to B10, for which the normalised SPOT signal, Boehringer light units (BLU); mean over the file's lines of this peptide in assay [1] is 98.3; in assay [2], 37.8; in assay [3], 44.3; in assay [4], 125; in assay [5], 223.

B11: YBR056W 139-152 (peptide)
chain: DSLPFAPLRKVYEL
For the molecule B11, the normalised SPOT signal, Boehringer light units (BLU); mean over the file's lines of this peptide in assay [1] came to 61.9; in assay [2], 34.7; in assay [3] it was 156; in assay [4], 322; in assay [5], 200.

B12: YCL008C 158-171 (peptide)
chain: DQAPSLPPKPNTQL
With B12, the normalised SPOT signal, Boehringer light units (BLU); mean over the file's lines of this peptide in assay [1] was 54.8; in assay [2], 72.2; in assay [3], 32.3; in assay [4], 17600; in assay [5], 4710.

B13: YOR042W 337-350 (peptide)
chain: DVPPQLPTRTKSGE
B13: the normalised SPOT signal, Boehringer light units (BLU); mean over the file's lines of this peptide was 76.3 in assay [1]; 61.9 in assay [2]; 23600 in assay [3]; 27900 in assay [4]; 73200 in assay [5].

B14: YNL238W 661-674 (peptide)
chain: DSDPNTPKKLSSPR
As to B14, the normalised SPOT signal, Boehringer light units (BLU); mean over the file's lines of this peptide in assay [1] was determined as 108; in assay [2] it was 22.9; in assay [3], 0; in assay [4] it was 28.1; in assay [5], 156.

B15: YDL106C 73-86 (peptide)
chain: DSGPQRPKRTRAKG
Consider B15, for which the normalised SPOT signal, Boehringer light units (BLU); mean over the file's lines of this peptide in assay [1] is 460; in assay [2], 91.1; in assay [3] it was 218; in assay [4], 38900; in assay [5] it was 4170.

B16: YOL055C 314-327 (peptide)
chain: DVIPKKPLKSAADK
B16: the normalised SPOT signal, Boehringer light units (BLU); mean over the file's lines of this peptide is 142 in assay [1]; 35.9 in assay [2]; 9.7 in assay [3]; 359 in assay [4]; 37 in assay [5].

B17: YBL015W 216-229 (peptide)
chain: DSIPVDPEKVVAIV
Regarding B17, the normalised SPOT signal, Boehringer light units (BLU); mean over the file's lines of this peptide was 50 in assay [1]; 22.2 in assay [2]; 37.9 in assay [3]; 0 in assay [4]; 0 in assay [5].

B18: YHR118C 82-95 (peptide)
chain: DSIPLEPKKAKHLM
For B18, the normalised SPOT signal, Boehringer light units (BLU); mean over the file's lines of this peptide in assay [1] came out at 389; in assay [2], 26.5; in assay [3], 33.7; in assay [4], 141; in assay [5] it was 206.

B19: YNL021W 81-94 (peptide)
chain: DPHPEDPRRIYRIY
With B19, the normalised SPOT signal, Boehringer light units (BLU); mean over the file's lines of this peptide in assay [1] was found to be 660; in assay [2], 40.8; in assay [3] it was 14.1; in assay [4], 161; in assay [5], 75.3.
